T1: TIGIT (ECD)-hFc (human, UniProt Q495A1 22-141)
T1 construct: bought protein; also called recombinant human TIGIT (ECD)-hFc; Cat #: 10917-H02H, Sino Biological; not shown: human Fc (hFc) of the bought protein
T1 sequence: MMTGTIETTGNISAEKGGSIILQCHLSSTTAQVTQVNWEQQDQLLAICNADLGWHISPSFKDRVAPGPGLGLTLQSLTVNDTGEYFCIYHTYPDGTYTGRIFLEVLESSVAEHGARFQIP

T2: human TIGIT (ECD)-his (human, UniProt Q495A1 22-141)
T2 construct: bought protein; also called hTIGIT(ECD)-his; Cat #: 10917-H08H, Sino Biological; not shown: his tag of the bought protein
T2 sequence: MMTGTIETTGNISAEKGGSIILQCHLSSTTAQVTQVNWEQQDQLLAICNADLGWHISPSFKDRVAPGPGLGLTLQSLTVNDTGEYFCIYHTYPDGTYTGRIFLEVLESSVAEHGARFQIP

T3: human TIGIT expressed on HEK293A cells (human, UniProt Q495A1 22-244)
T3 sequence: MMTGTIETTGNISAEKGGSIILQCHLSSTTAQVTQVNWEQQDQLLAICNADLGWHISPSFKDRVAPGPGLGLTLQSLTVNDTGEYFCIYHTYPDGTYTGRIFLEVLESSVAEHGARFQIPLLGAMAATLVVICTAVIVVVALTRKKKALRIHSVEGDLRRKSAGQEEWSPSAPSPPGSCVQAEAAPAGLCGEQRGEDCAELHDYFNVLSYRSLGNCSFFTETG


Columns and labels:
TIGIT (ECD)-hFc [1] = biological target: T1, TIGIT (ECD)-hFc; assay: FACS blocking assay (protocol of Example 7): serially diluted antibody pre-incubated with TIGIT (ECD)-hFc, then binding of TIGIT (ECD)-hFc to A549/human PVR cells measured; blocked ligand: human PVR [A]
human TIGIT (ECD)-his = biological target: T2, human TIGIT (ECD)-his; assay: SPR (BIAcore 8K), human TIGIT (ECD)-his on CM5 chip, antibody injected
Method: They were also tested in SPR assays for their binding affinities to human and monkey TIGITs using the BIAcore™ 8K instrument (GE Life Sciences, US). […] The binding affinities were calculated with the RUs of blank controls subtracted. The association rate (kₐ) and dissociation rate (kd) were calculated using the one-to-one Langmuir binding model (BIA Evaluation Software, GE Life Sciences, US). The equilibrium dissociation constant KD was calculated as the kd/kₐ ratio.

[2] = biological target: T3, human TIGIT expressed on HEK293A cells; assay: cell-based or functional assay
[3] = biological target: T3, human TIGIT expressed on HEK293A cells; assay: FACS, HEK293A/human TIGIT cells, serially diluted antibody (protocol of Example 5) [A]
TIGIT (ECD)-hFc [4] = biological target: T1, TIGIT (ECD)-hFc; assay: FACS blocking assay (protocol of Example 7): serially diluted antibody pre-incubated with TIGIT (ECD)-hFc, then binding of TIGIT (ECD)-hFc to A549/human PVR cells measured; blocked ligand: human PVR [B]

IC50 (read off the curve) (TIGIT (ECD)-hFc [1]) [µg/mL]	Kd (human TIGIT (ECD)-his) [nM]	NK92-mediated ADCC against HEK293A/human TIGIT cells, EC50 [2] [nM]	EC50 (read off the curve) [3] [µg/mL]	IC50 (read off the curve) (TIGIT (ECD)-hFc [4]) [µg/mL]	Binder
~4	–	–	–	–	Etigilimab (antibody, V domains shown) VH: QVQLQESGPGLVKPSETLSLTCAVSGYSITSDYAWNWIRQPPGKGLEWIGYISYSGSTSYNPSLRSRVTISRDTSKNQFFLKLSSVTAADTAVYYCARRQVGLGFAYWGQGTLVTVSS VL: DIQMTQSPSSLSASVGDRVTITCKASQDVSTAVAWYQQKPGKAPKLLIYSASYRYTGVPSRFSGSGSGTDFTFTISSLQPEDIATYYCQQHYSTPWTFGQGTKVEIK
~4	0.124	0.0191	–	–	70E11-VH3VL3 (antibody, human IgG1, kappa, V domains shown, humanized, human IgG1/kappa) VH: QVQLVQSGAEVKKPGASVKVSCKASGYTFTSYNVHWVRQAPGQGLEWIGTIYPGNLATSYNQKFKGRVTLTADKSTSTVYMELSSLRSEDTAVYYCARSGTMDYWGQGTTVTVSS VL: EIVLTQSPGTLSLSPGERATLSCRASSSISSTYLHWYQQKPGASPKLLIYNTQNLASGIPDRFSGSGSGTSYTLTISRLEPEDFAVYYCQQFGGYPLITFGAGTKLELKR
~4	–	–	–	–	70E11-VH4VL4 (antibody, human IgG1, kappa, V domains shown, humanized, human IgG1/kappa) VH: QVQLVQSGAEVKKPGASVKVSCKASGYTFTSYNVHWVKQTPGQGLEWIGTIYPGNLATSYNQKFKGRVTLTADKSTSTVYMELSSLRSEDTAVYYCARSGTMDYWGQGTTVTVSS VL: EIVLTQSPGTLSLSPGERATMTCRASSSISSTYLHWYQQKPGASPKLLIYNTQNLASGVPARFSGSGSGTSYTLTISRLEPEDFAVYYCQQFGGYPLITFGAGTKLELKR
~4	–	–	–	–	70E11-VH5VL4 (antibody, human IgG1, kappa, V domains shown, humanized, human IgG1/kappa) VH: QVQLVQSGAEVKKPGASVKVSCKASGYTFTSYNVHWVKQTPGQGLEWIGTIYPGNLATSYNQKFKGKATLTADKSTSTVYMELSSLRSEDTAVYYCARSGTMDYWGQGTTVTVSS VL: EIVLTQSPGTLSLSPGERATMTCRASSSISSTYLHWYQQKPGASPKLLIYNTQNLASGVPARFSGSGSGTSYTLTISRLEPEDFAVYYCQQFGGYPLITFGAGTKLELKR
~4	–	0.00436	–	–	70E11-VH1VL1 (antibody, human IgG1, kappa, V domains shown, humanized, human IgG1/kappa) VH: QVQLVQSGAEVKKPGASVKVSCKASGYTFTSYNVHWVRQAPGQGLEWMGTIYPGNLATSYNQKFKGRVTMTRDTSTSTVYMELSSLRSEDTAVYYCARSGTMDYWGQGTTVTVSS VL: EIVLTQSPGTLSLSPGERATLSCRASSSISSTYLHWYQQKPGQAPRLLIYNTQNLASGIPDRFSGSGSGTDFTLTISRLEPEDFAVYYCQQFGGYPLITFGAGTKLELKR
~4	0.43	0.0172	–	–	70E11-VH2VL4 (antibody, human IgG1, kappa, V domains shown, humanized, human IgG1/kappa; also called 70E11H2L4) VH: QVQLVQSGAEVKKPGASVKVSCKASGYTFTSYNVHWVRQAPGQGLEWMGTIYPGNLATSYNQKFKGRVTLTADTSTSTVYMELSSLRSEDTAVYYCARSGTMDYWGQGTTVTVSS VL: EIVLTQSPGTLSLSPGERATMTCRASSSISSTYLHWYQQKPGASPKLLIYNTQNLASGVPARFSGSGSGTSYTLTISRLEPEDFAVYYCQQFGGYPLITFGAGTKLELKR
~4	0.25	0.00714	–	–	70E11-VH5VL3 (antibody, human IgG1, kappa, V domains shown, humanized, human IgG1/kappa; also called 70E11H5L3) VH: QVQLVQSGAEVKKPGASVKVSCKASGYTFTSYNVHWVKQTPGQGLEWIGTIYPGNLATSYNQKFKGKATLTADKSTSTVYMELSSLRSEDTAVYYCARSGTMDYWGQGTTVTVSS VL: EIVLTQSPGTLSLSPGERATLSCRASSSISSTYLHWYQQKPGASPKLLIYNTQNLASGIPDRFSGSGSGTSYTLTISRLEPEDFAVYYCQQFGGYPLITFGAGTKLELKR
~4	–	–	–	–	70E11-VH5VL2 (antibody, human IgG1, kappa, V domains shown, humanized, human IgG1/kappa) VH: QVQLVQSGAEVKKPGASVKVSCKASGYTFTSYNVHWVKQTPGQGLEWIGTIYPGNLATSYNQKFKGKATLTADKSTSTVYMELSSLRSEDTAVYYCARSGTMDYWGQGTTVTVSS VL: EIVLTQSPGTLSLSPGERATLSCRASSSISSTYLHWYQQKPGQAPKLLIYNTQNLASGIPDRFSGSGSGTSFTLTISRLEPEDFAVYYCQQFGGYPLITFGAGTKLELKR
~4	–	0.00912	–	–	70E11-VH4VL2 (antibody, human IgG1, kappa, V domains shown, humanized, human IgG1/kappa) VH: QVQLVQSGAEVKKPGASVKVSCKASGYTFTSYNVHWVKQTPGQGLEWIGTIYPGNLATSYNQKFKGRVTLTADKSTSTVYMELSSLRSEDTAVYYCARSGTMDYWGQGTTVTVSS VL: EIVLTQSPGTLSLSPGERATLSCRASSSISSTYLHWYQQKPGQAPKLLIYNTQNLASGIPDRFSGSGSGTSFTLTISRLEPEDFAVYYCQQFGGYPLITFGAGTKLELKR
~4	–	–	–	–	70E11-VH2VL2 (antibody, human IgG1, kappa, V domains shown, humanized, human IgG1/kappa) VH: QVQLVQSGAEVKKPGASVKVSCKASGYTFTSYNVHWVRQAPGQGLEWMGTIYPGNLATSYNQKFKGRVTLTADTSTSTVYMELSSLRSEDTAVYYCARSGTMDYWGQGTTVTVSS VL: EIVLTQSPGTLSLSPGERATLSCRASSSISSTYLHWYQQKPGQAPKLLIYNTQNLASGIPDRFSGSGSGTSFTLTISRLEPEDFAVYYCQQFGGYPLITFGAGTKLELKR
~4	–	–	–	–	70E11-VH2VL3 (antibody, human IgG1, kappa, V domains shown, humanized, human IgG1/kappa) VH: QVQLVQSGAEVKKPGASVKVSCKASGYTFTSYNVHWVRQAPGQGLEWMGTIYPGNLATSYNQKFKGRVTLTADTSTSTVYMELSSLRSEDTAVYYCARSGTMDYWGQGTTVTVSS VL: EIVLTQSPGTLSLSPGERATLSCRASSSISSTYLHWYQQKPGASPKLLIYNTQNLASGIPDRFSGSGSGTSYTLTISRLEPEDFAVYYCQQFGGYPLITFGAGTKLELKR
~4	0.0502	–	–	–	70E11-VH3VL4 (antibody, human IgG1, kappa, V domains shown, humanized, human IgG1/kappa) VH: QVQLVQSGAEVKKPGASVKVSCKASGYTFTSYNVHWVRQAPGQGLEWIGTIYPGNLATSYNQKFKGRVTLTADKSTSTVYMELSSLRSEDTAVYYCARSGTMDYWGQGTTVTVSS VL: EIVLTQSPGTLSLSPGERATMTCRASSSISSTYLHWYQQKPGASPKLLIYNTQNLASGVPARFSGSGSGTSYTLTISRLEPEDFAVYYCQQFGGYPLITFGAGTKLELKR
~4	–	0.00729	–	–	70E11-VH4VL3 (antibody, human IgG1, kappa, V domains shown, humanized, human IgG1/kappa) VH: QVQLVQSGAEVKKPGASVKVSCKASGYTFTSYNVHWVKQTPGQGLEWIGTIYPGNLATSYNQKFKGRVTLTADKSTSTVYMELSSLRSEDTAVYYCARSGTMDYWGQGTTVTVSS VL: EIVLTQSPGTLSLSPGERATLSCRASSSISSTYLHWYQQKPGASPKLLIYNTQNLASGIPDRFSGSGSGTSYTLTISRLEPEDFAVYYCQQFGGYPLITFGAGTKLELKR
~4	–	–	–	–	70E11-VH3VL2 (antibody, human IgG1, kappa, V domains shown, humanized, human IgG1/kappa) VH: QVQLVQSGAEVKKPGASVKVSCKASGYTFTSYNVHWVRQAPGQGLEWIGTIYPGNLATSYNQKFKGRVTLTADKSTSTVYMELSSLRSEDTAVYYCARSGTMDYWGQGTTVTVSS VL: EIVLTQSPGTLSLSPGERATLSCRASSSISSTYLHWYQQKPGQAPKLLIYNTQNLASGIPDRFSGSGSGTSFTLTISRLEPEDFAVYYCQQFGGYPLITFGAGTKLELKR
–	–	–	~0.2	~2	149G11-VH1VL1 (antibody, human IgG1, kappa, V domains shown, humanized, human IgG1/kappa) VH: QVQLVQSGAEVKKPGASVKVSCKASGYTFTNYWIHWVRQAPGQGLEWMGDIYPGGRYSNYNEKFRGRVTMTRDTSTSTVYMELSSLRSEDTAVYYCARYYESAMDFWGQGTTVTVSS VL: DIVMTQSPDSLAVSLGERATINCKSSQNLLYNSNQKSYLAWYQQKPGQPPKLLIYWASTRESGVPDRFSGSGSGTDFTLTISSLQAEDVAVYYCQQYYNYPFTFGAGTKLELKR
–	–	0.0162	~0.2	–	149G11-VH2VL2 (antibody, human IgG1, kappa, V domains shown, humanized, human IgG1/kappa) VH: QVQLVQSGAEVKKPGASVKVSCKASGYTFTNYWIHWVRQAPGQGLEWIGDIYPGGRYSNYNEKFRGRVTLTADTSTSTVYMELSSLTSEDTAVYYCARYYESAMDFWGQGTTVTVSS VL: DIVMTQSPDSLAVSLGERATINCKSSQNLLYNSNQKSYLAWFQQKPGQPPKLLIYWASTRESGVPDRFSGSGSGTDFTLTISSLQAEDLAVYYCQQYYNYPFTFGAGTKLELKR

From US20220396617A1 (BEIJING MABWORKS BIOTECH, published 2022)
